# Data: patent US6949506B2, “Relaxin-like factor and methods and uses thereof” (BAS Medical, Inc., priority 1995, dated 2005)
# Positions of bridges follow the written chain, without caps; N, C: chain ends. Chains are numbered I, II in the order given. No end group written: not given here.
# Legend:
# [1] = tested on: collagen expression, rheumatoid synovial fibroblasts (Strain No. RSF64); assay: Inhibition of collagen expression by synovial fibroblasts; format: cell-based, human
# Method: The method for detecting and measuring collagen formation in the presence of relaxin described in Unemori and Amento, 1990, J. Biol. Chem. 265:10681-685 has been modified as follows to determine the ability of RLF, in vitro, to modulate the expression of collagen. Materials and Methods. Rheumatoid synovial fibroblasts (Strain No. […] The cells were simultaneously biosynthetically labelled with ^3H=[…] μCi/ml) in the presence of ascorbate and BAPN. After 24 hours, the conditioned media were collected and electrophoresed on 4-12% polyacrylamide gels (NOVEX) under reducing conditions. Gels were enhanced, dried, and exposed to X-ray films for 1-2 weeks. Collagen bands were identified on the X-ray films as bacterial collagenase-sensitive, proline-incorporating bands between 95-200 kDa. Band density was quantified by scanning densitometry and used as estimates of collagen expression.
# [2] = tested on: crude membrane preparations of leg muscles, kidneys, liver, brain, and uterus; assay: Tissue specificity of 125I-RLF binding; design: species or system mouse; conditions: skeletal muscle, kidney and liver tested, female estrogen primed mice
# Method: FIG. 6. FIG. 6 depicts the tissue distribution of RLF receptors in female estrogen primed mice as measured in vitro in a receptor-binding assay.
# Tissue specificity was determined using crude membrane preparations of leg muscles, kidneys, liver. brain, and uterus (of estrogen primed mice). The crude membranes were prepared as described for relaxin. Binding was based on protein concentration determined by Lowry.
# [3] = target: RLF receptor of mouse brain (mouse); assay: displacement of 125I-RLF tracer, mouse brain crude membranes; amount of competitor at 50% binding
# [4] = target: RLF receptor of mouse uterus (mouse); assay: displacement of 125I-RLF tracer, mouse uterus crude membranes; amount of competitor at 50% binding
# [5] = target: mouse brain relaxin receptor (mouse); assay: displacement of porcine relaxin tracer, mouse brain crude membranes; amount of competitor at 50% binding
# [6] = target: mouse uterine relaxin receptor (mouse); assay: displacement of porcine relaxin tracer, mouse uterus crude membranes; amount of competitor at 50% binding
# [7] = target: mouse brain relaxin receptor (mouse); assay: displacement of porcine relaxin tracer, mouse brain crude membranes
# Sequence of RLF receptor of mouse uterus (mouse) (Q91ZZ5 whole entry): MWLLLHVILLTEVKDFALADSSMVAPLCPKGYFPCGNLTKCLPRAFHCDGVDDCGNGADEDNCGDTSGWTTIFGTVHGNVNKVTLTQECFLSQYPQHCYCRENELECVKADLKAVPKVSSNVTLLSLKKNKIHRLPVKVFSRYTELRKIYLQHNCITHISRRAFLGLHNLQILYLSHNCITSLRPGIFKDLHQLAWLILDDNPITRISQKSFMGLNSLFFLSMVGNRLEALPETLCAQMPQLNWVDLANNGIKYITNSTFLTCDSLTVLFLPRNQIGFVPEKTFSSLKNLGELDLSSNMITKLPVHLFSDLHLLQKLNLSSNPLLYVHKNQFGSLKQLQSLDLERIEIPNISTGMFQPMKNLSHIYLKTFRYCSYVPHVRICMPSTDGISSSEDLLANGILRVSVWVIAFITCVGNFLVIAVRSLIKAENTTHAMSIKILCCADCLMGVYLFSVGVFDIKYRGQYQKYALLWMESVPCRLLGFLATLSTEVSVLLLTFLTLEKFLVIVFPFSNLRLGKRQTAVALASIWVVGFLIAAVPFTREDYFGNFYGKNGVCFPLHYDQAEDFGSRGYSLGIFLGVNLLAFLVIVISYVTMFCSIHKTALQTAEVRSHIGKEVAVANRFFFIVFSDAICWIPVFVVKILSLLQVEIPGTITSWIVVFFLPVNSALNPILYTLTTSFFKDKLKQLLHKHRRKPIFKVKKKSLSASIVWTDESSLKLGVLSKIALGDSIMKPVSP
# Sequence of mouse uterine relaxin receptor (mouse) (Q6R6I7 whole entry): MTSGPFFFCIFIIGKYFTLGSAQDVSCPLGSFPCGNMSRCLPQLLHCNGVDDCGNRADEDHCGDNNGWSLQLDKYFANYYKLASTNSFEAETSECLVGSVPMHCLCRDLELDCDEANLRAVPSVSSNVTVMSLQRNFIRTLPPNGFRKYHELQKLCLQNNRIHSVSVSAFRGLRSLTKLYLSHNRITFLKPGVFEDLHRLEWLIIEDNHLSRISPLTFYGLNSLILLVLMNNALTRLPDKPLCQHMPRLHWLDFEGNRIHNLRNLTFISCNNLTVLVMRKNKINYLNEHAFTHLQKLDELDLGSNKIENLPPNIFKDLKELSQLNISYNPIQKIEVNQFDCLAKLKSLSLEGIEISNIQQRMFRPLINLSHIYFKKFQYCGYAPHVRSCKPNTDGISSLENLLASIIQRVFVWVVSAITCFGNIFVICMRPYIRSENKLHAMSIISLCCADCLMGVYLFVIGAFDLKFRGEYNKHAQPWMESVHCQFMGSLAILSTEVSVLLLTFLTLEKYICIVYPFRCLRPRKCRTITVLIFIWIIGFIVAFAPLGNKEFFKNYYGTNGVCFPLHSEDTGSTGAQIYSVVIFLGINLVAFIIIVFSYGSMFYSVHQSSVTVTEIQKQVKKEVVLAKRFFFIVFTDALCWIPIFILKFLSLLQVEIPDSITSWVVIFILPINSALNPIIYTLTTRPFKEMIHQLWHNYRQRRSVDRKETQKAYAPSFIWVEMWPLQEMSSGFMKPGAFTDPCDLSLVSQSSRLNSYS
Molecule,50% Binding [3] [ng],50% Binding [4] [ng],50% Binding [5] [ng],50% Binding [6] [ng],excess that displaces 50% of the relaxin tracer [7] [fold excess],increase of collagen expression over untreated fibroblasts [1] [fold],tissues showing specific binding [2]
TGF-β [reference compound],,,,,,3.75,
^125I-RLF: 125I-labeled RLF used as tracer (chain 1 AAATNPARYCCLSGCTQQDLLTLCPY; chain 2 PTPEMREKLCGHHFVRALVRVCGGPRWSTEA; disulfide I:11-II:10; cysteine pairing not given here; also: 125I-labeled (site not given here)),,,,,,,only the brain- and the uterus membrane preparation showed specific binding

# Now from value to molecule, other results behind:
50% Binding [3] [ng],50% Binding [4] [ng],50% Binding [5] [ng],50% Binding [6] [ng],excess that displaces 50% of the relaxin tracer [7] [fold excess],Molecule,increase of collagen expression over untreated fibroblasts [1] [fold],tissues showing specific binding [2]
1000,800,1,1,,human relaxin (ligand) chain 1: QLYSALANKCCHVGCTKRSLARFC chain 2: DSWMEEVIKLCGRELVRAQIAICGMSTWS,,
0.3,0.3,200,10000,100,"human relaxin-like factor (RLF), synthetic (ligand) chain 1: AAATNPARYCCLSGCTQQDLLTLCPY chain 2: PTPEMREKLCGHHFVRALVRVCGGPRWSTEA",,
